Usually EC50 stands for the concentration that produces a half-maximal response. A higher EC50 goes with weaker potency.

In assay [1] the target is T1, ALK-1/BMPR-2 receptor pair of the PathHunter U2Os dimerization cells (DiscoverX 93-0962C3) (UniProt P37023 22-503; Q13873 27-1038). As to the kind of experiment: cell-based or functional assay.
Target sequence in this assay (P37023 22-503, chain 1 of 2): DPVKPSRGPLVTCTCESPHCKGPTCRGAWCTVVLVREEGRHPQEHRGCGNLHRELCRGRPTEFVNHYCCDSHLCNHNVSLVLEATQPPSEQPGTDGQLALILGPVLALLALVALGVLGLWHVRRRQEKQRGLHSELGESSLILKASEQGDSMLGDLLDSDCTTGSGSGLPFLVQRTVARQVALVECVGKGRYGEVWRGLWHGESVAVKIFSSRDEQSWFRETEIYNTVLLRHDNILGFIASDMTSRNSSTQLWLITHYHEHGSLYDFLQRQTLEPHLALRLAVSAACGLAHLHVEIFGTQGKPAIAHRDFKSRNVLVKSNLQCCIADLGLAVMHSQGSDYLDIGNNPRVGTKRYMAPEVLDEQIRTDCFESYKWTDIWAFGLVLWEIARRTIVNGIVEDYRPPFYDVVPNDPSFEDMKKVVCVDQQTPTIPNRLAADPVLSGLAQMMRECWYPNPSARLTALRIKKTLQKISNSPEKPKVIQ
Target sequence in this assay (Q13873 27-1038, chain 2 of 2): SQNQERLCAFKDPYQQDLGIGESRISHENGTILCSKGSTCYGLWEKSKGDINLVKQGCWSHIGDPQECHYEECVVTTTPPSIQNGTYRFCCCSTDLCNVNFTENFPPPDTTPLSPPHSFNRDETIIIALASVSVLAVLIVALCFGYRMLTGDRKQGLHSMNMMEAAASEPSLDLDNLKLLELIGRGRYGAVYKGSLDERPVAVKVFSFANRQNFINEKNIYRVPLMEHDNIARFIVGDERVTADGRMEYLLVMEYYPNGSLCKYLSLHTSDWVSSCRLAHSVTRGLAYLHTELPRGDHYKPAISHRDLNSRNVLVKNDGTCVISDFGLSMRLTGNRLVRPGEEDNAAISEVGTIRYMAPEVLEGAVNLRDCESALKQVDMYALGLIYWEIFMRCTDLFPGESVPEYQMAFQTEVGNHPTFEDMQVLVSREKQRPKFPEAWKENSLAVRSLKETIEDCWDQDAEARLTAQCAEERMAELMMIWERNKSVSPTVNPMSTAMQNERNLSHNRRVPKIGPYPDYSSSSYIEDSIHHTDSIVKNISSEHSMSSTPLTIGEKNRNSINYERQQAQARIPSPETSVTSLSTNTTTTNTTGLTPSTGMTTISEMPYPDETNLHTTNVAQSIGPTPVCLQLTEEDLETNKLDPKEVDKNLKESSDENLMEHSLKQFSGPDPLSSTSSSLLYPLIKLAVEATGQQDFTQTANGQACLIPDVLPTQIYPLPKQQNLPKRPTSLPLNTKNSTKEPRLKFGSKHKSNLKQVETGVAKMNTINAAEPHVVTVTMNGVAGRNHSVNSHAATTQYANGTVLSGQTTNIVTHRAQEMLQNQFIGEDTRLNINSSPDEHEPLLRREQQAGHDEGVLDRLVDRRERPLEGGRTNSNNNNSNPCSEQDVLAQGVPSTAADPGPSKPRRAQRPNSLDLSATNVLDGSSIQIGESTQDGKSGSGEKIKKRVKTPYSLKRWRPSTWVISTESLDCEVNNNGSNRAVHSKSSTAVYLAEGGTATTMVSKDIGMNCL
In assay [2] the target is T1, ALK-1/BMPR-2 receptor pair of the …. Kind of assay: cell-based or functional assay. The source holds these as a separate data set.

Numbering of substitutions follows the chain as printed. Like-named read-outs stand apart in the source and are kept apart here.

B1: PRO004 (bispecific antibody)
chain: EVQLLESGGGLVQPGGSLRLSCAASGFTFSNAWMNWVRQAPGKGLEWVSSISSSSSYIYYADSVKGRFTISRDNSKNTLYLQMNSLRAEDTAVYYCARAVAAGGMFWGLDQWGQGTLVTVTSSGGGGSGGGGSGGGGSQSVLTQPPSASGTPGQRVTISCSGSRSNIGSNSVHWYQQLPGTAPKLLIYGNSNRPSGVPDRFSGSKSGTSASLAISGLRSEDEADYYCQSYDSSLNDHVVFGGGTKLTVLDKTHTCPPCPAPEAAGAPSVFLFPPKPKDTLMISRTPEVTCVVVDVSHEDPEVKFNWYVDGVEVHNAKTKPREEQYNSTYRVVSVLTVLHQDWLNGKEYKCKVSNKALPAPIEKTISKAKGQPREPQVYTLPPSRDELTKNQVSLTCLVKGFYPSDIAVEWESNGQPENNYKTTPPVLDSDGSFFLYSKLTVDKSRWQQGNVFSCSVMHEALHNHYTQKSLSLSPGGGGGSGGGGSEVQLLESGGGLVQPGGSLRLSCAASGFTFSIYAMSWVRQAPGKGLEWVSAISGSGGSTYYADSVKGRFTISRDNSKNTLYLQMNSLRAEDTAVYYCARDFDYWGQGTLVTVTSSGGGGSGGGGSGGGGSQSVLTQPPSASGTPGQRVTISCSGSSSNIGSNYVYWYQQLPGTAPKLLIYGNINRPSGVPDRFSGSKSGTSASLAISGLRSEDEADYYCAAWDDSLNGRVFGGGTKLTVL
Take B1: in assay [1], the “% Emax BMP9” value stood at 46%, the “EC50” value is 0.5 nM and the “Emax (RLU)” value was determined as 1.21e+06 RLU.

B2: DGL266 (bispecific antibody)
chain 1: EVQLLESGGGLVQPGGSLRLSCAASGFTFSIYAMSWVRQAPGKGLEWVSAISGSGGSTYYADSVKGRFTISRDNSKNTLYLQMNSLRAEDTAVYYCARDFDYWGQGTLVTVTSSGGGGSGGGGSGGGGSQSVLTQPPSASGTPGQRVTISCSGSSSNIGSNYVYWYQQLPGTAPKLLIYGNINRPSGVPDRFSGSKSGTSASLAISGLRSEDEADYYCAAWDDSLNGRVFGGGTKLTVLGGGGSGGGGSGGGGSGVECPPCPAPPVAGPSVFLFPPKPKDTLMISRTPEVTCVVVDVSHEDPEVQFNWYVDGVEVHNAKTKPREEQFNSTFRVVSVLTVVHQDWLNGKEYKCKVSNKGLPAPIEKTISKTKGQPREPQVYTLPPCREEMTKNQVSLWCLVKGFYPSDIAVEWESNGQPENNYKTTPPMLDSDGSFFLYSKLTVDKSRWQQGNVFSCSVMHEALHNHYTQKSLSLSPG
chain 2: EVQLLESGGGLVQPGGSLRLSCAASGFTFSNAWMNWVRQAPGKGLEWVSSISSSSSYIYYADSVKGRFTISRDNSKNTLYLQMNSLRAEDTAVYYCARAVAAGGMFWGLDQWGQGTLVTVTSSGGGGSGGGGSGGGGSQSVLTQPPSASGTPGQRVTISCSGSRSNIGSNSVHWYQQLPGTAPKLLIYGNSNRPSGVPDRFSGSKSGTSASLAISGLRSEDEADYYCQSYDSSLNDHVVFGGGTKLTVLGGGGSGGGGSGGGGSGVECPPCPAPPVAGPSVFLFPPKPKDTLMISRTPEVTCVVVDVSHEDPEVQFNWYVDGVEVHNAKTKPREEQFNSTFRVVSVLTVVHQDWLNGKEYKCKVSNKGLPAPIEKTISKTKGQPREPQVCTLPPSREEMTKNQVSLSCAVKGFYPSDIAVEWESNGQPENNYKTTPPMLDSDGSFFLVSKLTVDKSRWQQGNVFSCSVMHEALHNHYTQKSLSLSPG
For B2, in assay [1], the “% Emax BMP9” value worked out at 39%, the “EC50” value stood at 2 nM and the “Emax (RLU)” value came to 1.04e+06 RLU.

B3: DGL893 (bispecific antibody)
chain 1: not shown
chain 2: EVQLLESGGGLVQPGGSLRLSCAASGFTFSDYYMTWIRQAPGKGLEWVSSISGGSTYYADSRKGRFTISRDNSENTLYLQMNSLRAEDTAVYYCARDFGVSGWFGQYGMDVWGQGTLVTVSSGGGGSGGGGSGGGGSQSVLTQPPSASGTPGQRVTISCTGSSSNIGAGYDVHWYQQLPGTAPKLLIYRSNQRPSGVPDRFSGSKSGTSASLAISGLRSEDEADYYCSSYAGNYNLVFGGGTKLTVLDKTHTCPPCPAPEAAGAPSVFLFPPKPKDTLMISRTPEVTCVVVDVSHEDPEVKFNWYVDGVEVHNAKTKPREEQYNSTYRVVSVLTVLHQDWLNGKEYKCKVSNKALPAPIEKTISKAKGQPREPQVCTLPPSRDELTKNQVSLSCAVKGFYPSDIAVEWESNGQPENNYKTTPPVLDSDGSFFLVSKLTVDKSRWQQGNVFSCSVMHEALHNHYTQKSLSLSPGWSHPQFEK
B3: in assay [2], the “% Emax BMP9” value was found to be 20% and the “Emax (RLU)” value worked out at 552000 RLU.

B4: DGL895 (bispecific antibody)
chain 1: not shown
chain 2: B3 chain 2 with S55T, S101A
For the molecule B4, in assay [2], the “% Emax BMP9” value was found to be 26% and the “Emax (RLU)” value came out at 715000 RLU.

B5: DGL896 (bispecific antibody)
chain 1: not shown
chain 2: B3 chain 2 with Y33W, S55T
Take B5: in assay [2], the “% Emax BMP9” value amounted to 10% and the “Emax (RLU)” value was determined as 282000 RLU.

B6: DGL903 (bispecific antibody)
chain 1: not shown
chain 2: B3 chain 2 with S55T, S101A
Take B6: in assay [2], the “% Emax BMP9” value amounted to 34% and the “Emax (RLU)” value came out at 918000 RLU.

B7: DGL894 (bispecific antibody)
chain 1: not shown
chain 2: B3 chain 2 with Y33W, S101A
For B7, in assay [2], the “% Emax BMP9” value is 14% and the “Emax (RLU)” value was determined as 383000 RLU.

B8: DGL902 (bispecific antibody)
chain 1: not shown
chain 2: B3 chain 2 with Y33W, S101A
Turning to B8, in assay [2], the “% Emax BMP9” value was found to be 19% and the “Emax (RLU)” value amounted to 529000 RLU.

B9: DGL900 (bispecific antibody)
chain 1: not shown
chain 2: B3 chain 2 with Y33W, S55T
In the case of B9, in assay [2], the “% Emax BMP9” value was found to be 12% and the “Emax (RLU)” value stood at 333000 RLU.

B10: DGL898 (bispecific antibody)
chain 1: not shown
chain 2: B3 chain 2 with Y33W, S101A
For B10, in assay [2], the “% Emax BMP9” value was determined as 19% and the “Emax (RLU)” value turned out to be 509000 RLU.

B11: DGL899 (bispecific antibody)
chain 1: not shown
chain 2: B3 chain 2 with S55T, S101A
With B11, in assay [2], the “% Emax BMP9” value was determined as 30% and the “Emax (RLU)” value was found to be 812000 RLU.

B12: DGL897 (bispecific antibody)
chain 1: not shown
chain 2: B3 chain 2
As for B12, in assay [2], the “% Emax BMP9” value is 26% and the “Emax (RLU)” value was determined as 701000 RLU.

B13: DGL901 (bispecific antibody)
chain 1: not shown
chain 2: B3 chain 2
As to B13, in assay [2], the “% Emax BMP9” value was 29% and the “Emax (RLU)” value came out at 800000 RLU.

B14: PRO006 (bispecific antibody)
chain: EVQLLESGGGLVQPGGSLRLSCAASGFTFSDYYMTWIRQAPGKGLEWVSSISGGSTYYADSRKGRFTISRDNSENTLYLQMNSLRAEDTAVYYCARDFGVAGWFGQYGMDVWGQGTLVTVSSGGGGSGGGGSGGGGSQSVLTQPPSASGTPGQRVTISCTGSSSNIGAGYDVHWYQQLPGTAPKLLIYRSNQRPSGVPDRFSGSKSGTSASLAISGLRSEDEADYYCSSYAGNYNLVFGGGTKLTVLDKTHTCPPCPAPEAAGAPSVFLFPPKPKDTLMISRTPEVTCVVVDVSHEDPEVKFNWYVDGVEVHNAKTKPREEQYNSTYRVVSVLTVLHQDWLNGKEYKCKVSNKALPAPIEKTISKAKGQPREPQVYTLPPSRDELTKNQVSLTCLVKGFYPSDIAVEWESNGQPENNYKTTPPVLDSDGSFFLYSKLTVDKSRWQQGNVFSCSVMHEALHNHYTQKSLSLSPGGGGGSGGGGSEVQLLESGGGLVQPGGSLRLSCAASGFTFSSYAMSWVRQAPGKGLEWVANINQDGSEKNYVDSMRGRFTISRDNSKNTLYLQMNSLRAEDTAVYYCAREFDYWGQGTLVTVTSSGGGGSGGGGSGGGGSQSVLAQPPSASGTPGQRVTISCSGSSSNIGSNYVYWYQQLPGTAPKLLIYGNNKRPSGVPDRFSGSKSGTSASLAISGLRSEDEADYYCAAWDDSLNGRVFGGGTKLTVL
In the case of B14, in assay [1], the “% Emax BMP9” value came out at 35%, a half-maximal effect (EC50) was put at 0.1 nM and the “Emax (RLU)” value came to 929000 RLU.

B15: PRO003 (bispecific antibody)
chain: EVQLLESGGGLVQPGGSLRLSCAASGFTFSIYAMSWVRQAPGKGLEWVSAISGSGGSTYYADSVKGRFTISRDNSKNTLYLQMNSLRAEDTAVYYCARDFDYWGQGTLVTVTSSGGGGSGGGGSGGGGSQSVLTQPPSASGTPGQRVTISCSGSSSNIGSNYVYWYQQLPGTAPKLLIYGNINRPSGVPDRFSGSKSGTSASLAISGLRSEDEADYYCAAWDDSLNGRVFGGGTKLTVLDKTHTCPPCPAPEAAGAPSVFLFPPKPKDTLMISRTPEVTCVVVDVSHEDPEVKFNWYVDGVEVHNAKTKPREEQYNSTYRVVSVLTVLHQDWLNGKEYKCKVSNKALPAPIEKTISKAKGQPREPQVYTLPPSRDELTKNQVSLTCLVKGFYPSDIAVEWESNGQPENNYKTTPPVLDSDGSFFLYSKLTVDKSRWQQGNVFSCSVMHEALHNHYTQKSLSLSPGGGGGSGGGGSEVQLLESGGGLVQPGGSLRLSCAASGFTFSNAWMNWVRQAPGKGLEWVSSISSSSSYIYYADSVKGRFTISRDNSKNTLYLQMNSLRAEDTAVYYCARAVAAGGMFWGLDQWGQGTLVTVTSSGGGGSGGGGSGGGGSQSVLTQPPSASGTPGQRVTISCSGSRSNIGSNSVHWYQQLPGTAPKLLIYGNSNRPSGVPDRFSGSKSGTSASLAISGLRSEDEADYYCQSYDSSLNDHVVFGGGTKLTVL
Consider B15, for which, in assay [1], the “% Emax BMP9” value worked out at 47%, a half-maximal response (EC50) required 0.1 nM and the “Emax (RLU)” value stood at 1.25e+06 RLU.

B16: PRO005 (bispecific antibody)
chain: EVQLLESGGGLVQPGGSLRLSCAASGFTFSSYAMSWVRQAPGKGLEWVANINQDGSEKNYVDSMRGRFTISRDNSKNTLYLQMNSLRAEDTAVYYCAREFDYWGQGTLVTVTSSGGGGSGGGGSGGGGSQSVLAQPPSASGTPGQRVTISCSGSSSNIGSNYVYWYQQLPGTAPKLLIYGNNKRPSGVPDRFSGSKSGTSASLAISGLRSEDEADYYCAAWDDSLNGRVFGGGTKLTVLDKTHTCPPCPAPEAAGAPSVFLFPPKPKDTLMISRTPEVTCVVVDVSHEDPEVKFNWYVDGVEVHNAKTKPREEQYNSTYRVVSVLTVLHQDWLNGKEYKCKVSNKALPAPIEKTISKAKGQPREPQVYTLPPSRDELTKNQVSLTCLVKGFYPSDIAVEWESNGQPENNYKTTPPVLDSDGSFFLYSKLTVDKSRWQQGNVFSCSVMHEALHNHYTQKSLSLSPGGGGGSGGGGSEVQLLESGGGLVQPGGSLRLSCAASGFTFSDYYMTWIRQAPGKGLEWVSSISGGSTYYADSRKGRFTISRDNSENTLYLQMNSLRAEDTAVYYCARDFGVAGWFGQYGMDVWGQGTLVTVSSGGGGSGGGGSGGGGSQSVLTQPPSASGTPGQRVTISCTGSSSNIGAGYDVHWYQQLPGTAPKLLIYRSNQRPSGVPDRFSGSKSGTSASLAISGLRSEDEADYYCSSYAGNYNLVFGGGTKLTVL
For B16, in assay [1], the “% Emax BMP9” value was 35%, the “EC50” value is 0.075 nM and the “Emax (RLU)” value was found to be 931000 RLU.

The record behind these values is patent US20250002588A1 (DIAGONAL THERAPEUTICS, published 2025).
